In PMC10085679, “Filament assembly underpins the double-stranded DNA specificity of AIM2-like receptors”:

Experiments:
IFI16FL [1] = target: T1, IFI16FL (Homo sapiens, UniProt Q16666-2 1-729); test: fluorescence anisotropy; 160 mM KCl (60 mM KCl for IFI16HinAB); buffer, pH and temperature not given in the available text; details: protein: recombinant; tags: C-terminal His6
AIM2FL [2] = target: T2, AIM2FL (Homo sapiens, UniProt O14862 1-343); test: as above; details: protein: recombinant
T2 sequence: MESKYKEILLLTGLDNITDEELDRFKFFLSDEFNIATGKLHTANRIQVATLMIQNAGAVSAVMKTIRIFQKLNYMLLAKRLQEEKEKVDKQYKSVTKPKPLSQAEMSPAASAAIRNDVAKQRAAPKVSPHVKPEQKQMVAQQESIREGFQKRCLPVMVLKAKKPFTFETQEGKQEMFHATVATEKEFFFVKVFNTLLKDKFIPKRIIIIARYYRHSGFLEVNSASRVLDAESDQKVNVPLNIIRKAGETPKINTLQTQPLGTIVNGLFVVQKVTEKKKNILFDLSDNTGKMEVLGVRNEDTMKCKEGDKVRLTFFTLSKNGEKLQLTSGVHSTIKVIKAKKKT

IFI16HinAB [3] = target: T3, IFI16HinAB (Homo sapiens, UniProt Q16666-2 159-729); test: as above; details: protein: recombinant
AIM2HIN [4] = target: T4, AIM2HIN (Homo sapiens, UniProt O14862 144-343); test: as above; details: protein: recombinant
T4 sequence: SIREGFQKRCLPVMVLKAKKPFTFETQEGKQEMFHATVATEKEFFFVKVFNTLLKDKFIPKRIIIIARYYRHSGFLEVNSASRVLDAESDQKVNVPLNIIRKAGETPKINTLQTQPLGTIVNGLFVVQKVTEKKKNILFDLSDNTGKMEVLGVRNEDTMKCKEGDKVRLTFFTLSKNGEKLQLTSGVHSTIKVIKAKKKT

AIM2FL [5] = target: T2, AIM2FL; test: fluorescence anisotropy; 160 mM KCl; 60 mM KCl for IFI16HinAB; FAM probe 3-6 nM (FA) or 20 nM (EMSA); binding buffer pH and temperature not in the material; details: protein: recombinant
AIM2FL [6] = target: T2, AIM2FL; test: competition fluorescence anisotropy; unlabelled competitor against 6 nM 24-bp FAM-dsDNA, 100 nM protein; 160 mM KCl (60 mM KCl for IFI16HinAB); buffer, pH and temperature not given in the available text; details: protein: recombinant
IFI16FL [7] = target: T1, IFI16FL; test: competition fluorescence anisotropy; unlabelled competitor against 6 nM 24-bp FAM-dsDNA, 500 nM protein; 160 mM KCl (60 mM KCl for IFI16HinAB); buffer, pH and temperature not given in the available text; details: protein: recombinant; tags: C-terminal His6
AIM2HIN [8] = target: T4, AIM2HIN; test: competition fluorescence anisotropy; unlabelled competitor against 6 nM 24-bp FAM-dsDNA, 625 nM protein; 160 mM KCl (60 mM KCl for IFI16HinAB); buffer, pH and temperature not given in the available text; details: protein: recombinant
IFI16HinAB [9] = target: T3, IFI16HinAB; test: competition fluorescence anisotropy; unlabelled competitor against 6 nM 60-bp FAM-dsDNA, 400 nM protein; 160 mM KCl (60 mM KCl for IFI16HinAB); buffer, pH and temperature not given in the available text; details: protein: recombinant
AIM2HIN [10] = target: T4, AIM2HIN; test: as above; details: protein: recombinant
IFI16FL [11] = target: T1, IFI16FL; test: competition; last row of Table S10, presumably against 60-bp FAM-dsDNA; 160 mM KCl; 60 mM KCl for IFI16HinAB; FAM probe 3-6 nM (FA) or 20 nM (EMSA); binding buffer pH and temperature not in the material; details: protein: recombinant; tags: C-terminal His6
IFI16HinAB [12] = target: T3, IFI16HinAB; test: competition fluorescence anisotropy; unlabelled competitor against 6 nM 24-bp FAM-dsDNA, 1000 nM protein; 160 mM KCl (60 mM KCl for IFI16HinAB); buffer, pH and temperature not given in the available text; details: protein: recombinant

T3 sequence (Q16666 other isoform, or with tags, fused parts or gaps): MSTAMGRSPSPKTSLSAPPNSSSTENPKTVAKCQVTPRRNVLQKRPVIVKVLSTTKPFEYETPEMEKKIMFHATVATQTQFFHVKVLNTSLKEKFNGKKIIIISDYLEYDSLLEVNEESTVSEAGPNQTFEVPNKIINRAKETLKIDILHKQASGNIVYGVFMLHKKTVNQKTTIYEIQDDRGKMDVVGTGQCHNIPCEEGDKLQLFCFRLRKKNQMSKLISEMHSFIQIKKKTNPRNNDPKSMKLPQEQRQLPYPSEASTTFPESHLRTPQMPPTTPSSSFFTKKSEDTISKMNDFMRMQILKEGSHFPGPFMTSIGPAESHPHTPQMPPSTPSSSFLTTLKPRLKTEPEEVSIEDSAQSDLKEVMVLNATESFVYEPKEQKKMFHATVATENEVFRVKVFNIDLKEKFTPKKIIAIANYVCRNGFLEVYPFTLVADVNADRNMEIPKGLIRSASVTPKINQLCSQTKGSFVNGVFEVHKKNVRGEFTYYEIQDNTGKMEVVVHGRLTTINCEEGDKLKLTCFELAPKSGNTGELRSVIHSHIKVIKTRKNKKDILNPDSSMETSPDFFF
T1 sequence (Q16666 other isoform, or with tags, fused parts or gaps): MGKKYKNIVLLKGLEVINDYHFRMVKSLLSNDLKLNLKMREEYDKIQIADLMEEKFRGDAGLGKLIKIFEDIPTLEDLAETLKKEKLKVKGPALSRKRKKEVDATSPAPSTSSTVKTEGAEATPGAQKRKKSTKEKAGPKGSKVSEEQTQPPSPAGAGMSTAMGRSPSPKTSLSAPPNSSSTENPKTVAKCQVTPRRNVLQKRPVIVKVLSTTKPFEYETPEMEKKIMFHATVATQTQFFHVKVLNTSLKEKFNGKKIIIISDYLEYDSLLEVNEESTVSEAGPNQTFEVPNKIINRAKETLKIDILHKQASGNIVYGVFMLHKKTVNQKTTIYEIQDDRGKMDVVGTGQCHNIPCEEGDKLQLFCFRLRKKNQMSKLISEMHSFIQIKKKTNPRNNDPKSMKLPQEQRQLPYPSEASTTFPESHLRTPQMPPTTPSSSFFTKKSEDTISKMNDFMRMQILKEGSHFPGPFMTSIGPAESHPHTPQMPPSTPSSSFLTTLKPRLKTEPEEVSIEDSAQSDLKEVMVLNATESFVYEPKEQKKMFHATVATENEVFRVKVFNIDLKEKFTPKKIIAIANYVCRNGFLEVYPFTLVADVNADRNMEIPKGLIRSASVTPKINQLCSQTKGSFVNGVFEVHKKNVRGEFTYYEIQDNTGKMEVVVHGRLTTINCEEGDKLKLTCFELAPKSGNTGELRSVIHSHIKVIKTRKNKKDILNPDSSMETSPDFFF

B1: 60-bp DNA:RNA hybrid (DNA:RNA)
DNA: TAAGACACGATGCGATAAAATCTGTTTGTAAAATTTATTAAGGGTACAAATTGCCCTAGC
RNA: GCUAGGGCAAUUUGUACCCUUAAUAAAUUUUACAAACAGAUUUUAUCGCAUCGUGUCUUA
- Kd (IFI16FL [1]): 35 ± 15 nM
- Kd (AIM2FL [2]): 40 ± 10 nM
- Kd (IFI16HinAB [3]): 60 ± 10 nM
- Kd (AIM2HIN [4]): 800 ± 100 nM
- Kd (AIM2FL [5]): 40 ± 10 nM
- IC50 (AIM2FL [6]): 19.6 ± 0.44 nM
- IC50 (IFI16FL [7]): 239 ± 31.9 nM
- IC50 (AIM2HIN [8]): 100 ± 9 nM
- IC50 (IFI16HinAB [9]): 623 ± 106 nM
- IC50 (AIM2HIN [10]): 350 ± 44 nM
- IC50 (IFI16FL [11]): 975 ± 48.1 nM
- IC50 (IFI16HinAB [12]): 663 ± 64.6 nM
